One data set addresses T1, PTP10D (Drosophila melanogaster, UniProt P35992).
T1 sequence (P35992 1226-1533): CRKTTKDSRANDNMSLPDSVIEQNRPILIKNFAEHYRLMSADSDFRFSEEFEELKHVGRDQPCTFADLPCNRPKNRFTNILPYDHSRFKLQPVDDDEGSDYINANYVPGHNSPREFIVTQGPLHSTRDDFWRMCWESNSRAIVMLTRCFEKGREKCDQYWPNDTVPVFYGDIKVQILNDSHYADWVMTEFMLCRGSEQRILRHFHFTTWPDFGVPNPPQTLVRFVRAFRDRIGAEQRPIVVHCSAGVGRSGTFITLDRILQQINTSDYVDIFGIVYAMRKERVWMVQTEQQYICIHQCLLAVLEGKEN
The data set is described as follows: crystal structure. The data set is classed as biochemical.

Substrate in the data set “purified protein”: O=[N+]([O-])c1ccc(OP(=O)(O)O)cc1
The data set is described as follows: purified protein.

The source of these data is paper PMC3667199 (Biochemistry, 2011).

A word on the Ki: it is a measure of affinity in units of concentration, obtained from inhibition or displacement. As a reminder, the Km is the concentration of substrate that gives half-maximal velocity. One may read the Vmax as the top rate of the reaction or transport when substrate is in excess. The kcat is the maximal rate divided by the concentration of active sites. As a reminder, the kcat/Km is the second-order rate constant that governs catalysis at low substrate concentration.

Molecule `[O]=[V]([OH])([OH])[OH]` [sodium vanadate] showed a Ki at PTP10D of 1.53 ± 0.14 µM.

B1: PTP10D (Drosophila melanogaster) (protein)
chain: T1 sequence (P35992 1226-1533)
Take B1: in “purified protein”, the Km was determined as 5.3128 ± 0.05842 mM, the Vmax was 13.7 µmol/min/mg, the catalytic constant (kcat) was 8.24 ± 0.89 s⁻¹ and the kcat/Km came out at 1550 ± 160 M⁻¹ s⁻¹.
